T1: Human PTK7/CCK4 Protein, His Tag, Acro Biosystems PT7-H52H3 (human, UniProt Q13308 31-704)
T1 construct: bought protein; also called Human PTK7 Protein, His Tag, Acro Biosystems; not shown: His tag
T1 sequence: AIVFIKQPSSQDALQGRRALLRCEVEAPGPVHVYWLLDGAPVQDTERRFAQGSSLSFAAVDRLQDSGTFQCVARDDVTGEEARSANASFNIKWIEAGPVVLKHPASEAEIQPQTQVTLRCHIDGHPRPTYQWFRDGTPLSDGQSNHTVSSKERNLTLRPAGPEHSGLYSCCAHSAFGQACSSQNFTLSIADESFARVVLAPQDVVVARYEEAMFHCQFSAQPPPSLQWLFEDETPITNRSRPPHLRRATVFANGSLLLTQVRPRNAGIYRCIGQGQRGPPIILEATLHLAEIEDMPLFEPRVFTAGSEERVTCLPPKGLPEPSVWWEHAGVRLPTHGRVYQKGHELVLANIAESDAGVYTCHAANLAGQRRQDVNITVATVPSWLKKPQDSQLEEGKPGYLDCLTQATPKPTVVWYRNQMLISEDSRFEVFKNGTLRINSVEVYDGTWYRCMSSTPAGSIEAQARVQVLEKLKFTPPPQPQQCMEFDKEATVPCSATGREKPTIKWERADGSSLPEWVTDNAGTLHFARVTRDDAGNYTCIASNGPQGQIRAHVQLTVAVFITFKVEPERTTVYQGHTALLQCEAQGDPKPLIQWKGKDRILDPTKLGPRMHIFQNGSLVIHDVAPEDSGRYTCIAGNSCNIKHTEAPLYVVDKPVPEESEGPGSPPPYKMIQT


Molecular target: T1, Human PTK7/CCK4 Protein, His Tag, Acro …
Test: BLI, antibody on anti-human Fc sensor, 50 nM PTK7

Binder | binding result
MYT11180 (antibody, V domains shown, IgG) VH: EVQLVESGGGLVQPGGSLRLSCTASHIDLSSYVMGWVRQAPGKGLEWVGYIYGGGGTYYATWARGRFTISRDTSKNTVYLQMNSLRAEDTAVYFCARAAADFYFNLWGQGTLVTVSS VL: EIVMTQSPSTLSASVGDRVIITCQASQSISSYLAWYQQKPGKAPKLLIYDISDLASGVPSRFSGSGSGAEFTLTISSLQPDDFATYYCQSYYWISNSGAAFGQGTKLTVL | binds
MYT11150 (antibody, V domains shown, IgG) VH: EVQLVESGGGLVQPGGSLRLSCTASGFSLSTYAMSWVRQAPGKGLEWVGMIYINDNTYYASWAKGRFTISRDTSKNTVYLQMNSLRAEDTAVYFCARDIGISYYIGVSLWGQGTLVTVSS VL: EIVMTQSPSTLSASVGDRVIITCQASQSHGTRLSWYQQKPGKAPKLLIYGASKLATGVPSRFSGSGSGAEFTLTISSLQPDDFATYYCLGEYSYTTTDGIAFGQGTKLTVL | binds
MYT11151 (antibody, V domains shown, IgG) VH: EVQLVESGGGLVQPGGSLRLSCTASGFSLSTYAMSWVRQAPGKGLEWVGMIYINDNTYYASWAKGRFTISRDTSKNTVYLQMNSLRAEDTAVYFCARDIGISYYIGVSLWGQGTLVTVSS VL: EIVMTQSPSTLSASVGDRVIITCQASQSIHTRLSWYQQKPGKAPKLLIYGASKLATGVPSRFSGSGSGAEFTLTISSLQPDDFATYYCLGEYSYTTTDGIAFGQGTKLTVL | binds
MYT11153 (antibody, V domains shown, IgG) VH: EVQLVESGGGLVQPGGSLRLSCTASGFSLSTYAMSWVRQAPGKGLEWVGMIYINDNTYYASWAKGRFTISRDTSKNTVYLQMNSLRAEDTAVYFCARDIGISYYIGVSLWGQGTLVTVSS VL: EIVMTQSPSTLSASVGDRVIITCQASQSIGTHLSWYQQKPGKAPKLLIYGASKLATGVPSRFSGSGSGAEFTLTISSLQPDDFATYYCLGEYSYTTTDGIAFGQGTKLTVL | binds

The remaining lines, values ahead:

binding result | Binder
binds | MYT11163 (antibody, V domains shown, IgG) VH: EVQLVESGGGLVQPGGSLRLSCTASGFSLSTYAMSWVRQAPGKGLEWVGMIYINDNTYYASWAKGRFTISRDTSKNTVYLQMNSLRAEDTAVYFCARDIGISYYIGVSLWGQGTLVTVSS VL: EIVMTQSPSTLSASVGDRVIITCQASQSIGTRLSWYQQKPGKAPKLLIYGASKLATGVPSRFSGSGSGAEFTLTISSLQPDDFATYYCHGEYSYTTTDGIAFGQGTKLTVL
binds | MYT11152 (antibody, V domains shown, IgG) VH: EVQLVESGGGLVQPGGSLRLSCTASGFSLSTYAMSWVRQAPGKGLEWVGMIYINDNTYYASWAKGRFTISRDTSKNTVYLQMNSLRAEDTAVYFCARDIGISYYIGVSLWGQGTLVTVSS VL: EIVMTQSPSTLSASVGDRVIITCQASQSIGHRLSWYQQKPGKAPKLLIYGASKLATGVPSRFSGSGSGAEFTLTISSLQPDDFATYYCLGEYSYTTTDGIAFGQGTKLTVL
binds | MYT11166 (antibody, V domains shown, IgG) VH: EVQLVESGGGLVQPGGSLRLSCTASGFSLSTYAMSWVRQAPGKGLEWVGMIYINDNTYYASWAKGRFTISRDTSKNTVYLQMNSLRAEDTAVYFCARDIGISYYIGVSLWGQGTLVTVSS VL: EIVMTQSPSTLSASVGDRVIITCQASQSIGTRLSWYQQKPGKAPKLLIYGASKLATGVPSRFSGSGSGAEFTLTISSLQPDDFATYYCLGEHSYTTTDGIAFGQGTKLTVL
binds | MYT11172 (antibody, V domains shown, IgG) VH: EVQLVESGGGLVQPGGSLRLSCTASGFSLSTYAMSWVRQAPGKGLEWVGMIYINDNTYYASWAKGRFTISRDTSKNTVYLQMNSLRAEDTAVYFCARDIGISYYIGVSLWGQGTLVTVSS VL: EIVMTQSPSTLSASVGDRVIITCQASQSIGTRLSWYQQKPGKAPKLLIYGASKLATGVPSRFSGSGSGAEFTLTISSLQPDDFATYYCLGEYSYTTTHGIAFGQGTKLTVL

— patent publication US20260209386A1 (MYTHIC THERAPEUTICS, published 2026)
